Source: patent US20100248978A1, “METHOD FOR IDENTIFYING THE INTERACTION PARTNER OF AN ACTIVE AGENT” (Bayer Cropscience AG, priority 2007, published 2010)

T1: recombinant, His-tagged HPPD (p-hydroxyphenylpyruvate dioxygenase) (Arabidopsis thaliana, UniProt P93836)
T1 construct: His-tag
T1 sequence (P93836 1-445): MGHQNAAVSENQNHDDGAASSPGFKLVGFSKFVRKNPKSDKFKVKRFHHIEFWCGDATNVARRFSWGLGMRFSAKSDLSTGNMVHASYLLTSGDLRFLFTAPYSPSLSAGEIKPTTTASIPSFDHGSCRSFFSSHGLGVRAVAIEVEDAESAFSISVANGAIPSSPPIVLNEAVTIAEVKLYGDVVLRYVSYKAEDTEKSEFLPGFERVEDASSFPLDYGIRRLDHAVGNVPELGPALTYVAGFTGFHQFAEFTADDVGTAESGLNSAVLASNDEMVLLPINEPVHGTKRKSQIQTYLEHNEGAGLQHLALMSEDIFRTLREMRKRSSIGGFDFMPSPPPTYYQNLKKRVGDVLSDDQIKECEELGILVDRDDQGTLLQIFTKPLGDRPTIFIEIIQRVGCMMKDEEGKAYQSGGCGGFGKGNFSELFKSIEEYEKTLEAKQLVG

T2: recombinant HPPD (Arabidopsis thaliana, UniProt P93836)
T2 construct: His-tag
T2 sequence (P93836 1-445): T1 sequence (P93836 1-445)

T3: endogenous HPPD (Arabidopsis thaliana, UniProt P93836)
T3 construct: pull down endogenous HPPD in protein extract, i.e. no recombinant protein was added; from tissue; host or cells: protein extract from freeze-dried powder of Arabidopsis thaliana
T3 sequence (P93836 1-445): T1 sequence (P93836 1-445)

B1: S115A-C1: monoclonal RNA aptamer binding HPPD from classical SELEX run S115A, SEQ. ID. No. 2 (nucleic acid)
chain: GGGAGAGGAGGGAGAUAGAUAUCAACAAUGACUAGCCGUGUAAGUGGUCUCGUACAUCCGAAAAAGACGACCCAGUUUGUCCUCACGGUGGAUGG
modifications: listed as RNA, chemistry not given here
B2: S116B-C4: monoclonal RNA aptamer, specific ligand to HPPD from competitive SELEX S116B, SEQ. ID. No. 4 (nucleic acid)
chain: GGGAGAGGAGGGAGAUAGAUAUCAAGUAACAAAUGAUACUUUCCAAGCAUAAUUCAUUCGCAGCCCGAAUUAAGUUUGUCCUCACGGUGGAUGG
modifications: RNA, backbone not given here
B3: S116C-C18 (nucleic acid)
DNA: GGGAGAGGAGGGAGAUAGAUAUCAAUAUCGCCACGUUACGAGUACCAAGCUUUAUUUCCGCAGCCCGAUAGAGUUUGUCCUCACGGUGGAUGG
modifications: chemistry not given here
B4: S116D-C8: monoclonal RNA aptamer, specific ligand to HPPD from competitive SELEX S116D, SEQ. ID. No. 5 (nucleic acid)
chain: GGGAGAGGAGGGAGAUAGAUAUCAAUAAAGUCGGUGACACCACGCAUCCAAAUACCGGUACGCGGAACUAAUAGUUUGUCCUCACGGUGGAUGG
modifications: RNA, backbone not given here

What was measured:
[1] = biological target: T1, recombinant, His-tagged HPPD (p-hydroxyphenylpyruvate dioxygenase); experiment: nitrocellulose filter retention assay, binding of radioactively labelled RNA to recombinant HPPD; settings: monoclonal aptamer, recombinant HPPD at various concentrations; read-out: dissociation constant
Method: Recombinant, His-tagged HPPD was targeted as an interaction partner in two SELEX runs, referred to as S115A and S115E, which comprised 12 and 9 cycles, respectively. Briefly, the protein was biotinylated and exposed to the RNA library with a 47 nucleotide random region (N47α) in 20 mM Hepes (pH 7.4), 150 mM NaCl, 3 mM MgCl2, and 1 mg/ml BSA (in vitro selection 5115A) or 20 mM Hepes (pH 7.4), 150 mM NaCl, 3 mM MgCl2, 10% DMSO and 1 mg/ml BSA (in vitro selection S115B). The library N47α consists of a random region of 47 nucleotides which is flanked by fixed sequences at the 5′ and 3′ end that serve as primer annealing sites for the amplification of the selected aptamer sequences via reverse transcription and PCR. The 5′ region additionally contains the sequence of an T7-RNA polymerase promoter that enables the transcription of the PCR DNA template into RNA. The sense sequence of the PCR DNA template is “5″-[…]-N47-[…]-3′ (SEQ. ID No. 1). The T7-RNA polymerase promoter is underlined. The double stranded DNA template was used to transcribe the initial RNA library. The procedures to produce an RNA library and to perform a SELEX experiment are well known to a person skilled in the art and described in, e.g., Methods in Enzymology, Vol 267, Combinatorial Chemistry (1996), Abelson J. N. and Simon M. I., eds. Academic Press, San Diego. Subsequently, the complexes between target and RNA were captured on streptavidin-coated beads and unbound RNA was removed by washing with binding buffer. […] RNA bound to the target protein is retained within the complex on the filter and was quantified by a phosphoimager. Values were calculated as the percentage of total radiolabeled RNA in the reaction.
(§1) The dissociation constant (FIG. 4B) was determined to be 128±11 nM. consistent with strong binding to S115A-C1 to recombinant HPPD.
To determine the binding properties of individual aptamers isolated as part of the mixture of aptamers binding to HPPD in the previous example, aptamers were cloned into a vector, and 24 clones were sequenced. For each experiment out of S116B, S116C and S116D, one of the cloned aptamers subsequently identified as specific ligands to HPPD (termed S116C-C18 (5″-GGGAGAGGAGGGAGAUAGAUAUCAAUAUCGCCACGUUACGAGUACCAAGCUULJ […]-3″ (SEQ. ID. No. 3)), S116B-C4 (5′-[…] UGG-3′ (SEQ. ID. No. 4)) and S116D-C8 (5″-GGGAGAGGAGGG […]-3′) (SEQ. ID. No. 5)) was analysed with respect to the thermodynamics of the binding. […] The dissociation constants determined for S116B-C4, S116C-C18 and S116D-C8, were 740±39, 832±39 and 120±9 nM, respectively, consistent with the view that decreasing the concentration of the interaction partner to 2 pM (experiment S116D) actually yield the most tightly binding aptamer.

control proteins = experiment: nitrocellulose filter retention assay with control proteins as negative controls; type: binding; settings: HPPD replaced by an equivalent concentration of control proteins
Method: Recombinant, His-tagged HPPD was targeted as an interaction partner in two SELEX runs, referred to as S115A and S115E, which comprised 12 and 9 cycles, respectively. Briefly, the protein was biotinylated and exposed to the RNA library with a 47 nucleotide random region (N47α) in 20 mM Hepes (pH 7.4), 150 mM NaCl, 3 mM MgCl2, and 1 mg/ml BSA (in vitro selection 5115A) or 20 mM Hepes (pH 7.4), 150 mM NaCl, 3 mM MgCl2, 10% DMSO and 1 mg/ml BSA (in vitro selection S115B). The library N47α consists of a random region of 47 nucleotides which is flanked by fixed sequences at the 5′ and 3′ end that serve as primer annealing sites for the amplification of the selected aptamer sequences via reverse transcription and PCR. The 5′ region additionally contains the sequence of an T7-RNA polymerase promoter that enables the transcription of the PCR DNA template into RNA. The sense sequence of the PCR DNA template is “5″-[…]-N47-[…]-3′ (SEQ. ID No. 1). The T7-RNA polymerase promoter is underlined. The double stranded DNA template was used to transcribe the initial RNA library. […] RNA bound to the target protein is retained within the complex on the filter and was quantified by a phosphoimager. Values were calculated as the percentage of total radiolabeled RNA in the reaction.
as §1

recombinant HPPD = biological target: T2, recombinant HPPD; experiment: pull down of recombinant HPPD with biotinylated aptamers immobilised on streptavidin beads (SDS-PAGE); type: binding; settings: for pull down of HPPD (protein band on SDS-PAGE): 10 μg of HPPD, in the absence of protein extract
From the text: To confirm the concept that aptamers isolated using the competitive SELEX approach can be used to identify the interaction partner of interest, the two tightly binding aptamers S116C-C18 and S116D-C8, henceforth referred to as anti-HPPD aptamers, were biotinylated by in vitro transcription, using the appropriate DNA template and biotinylated ApG starter nucleotides (IBA, Göttingen) (Pitulle C. et al. (1992), Gene, 112(1):101-5; Gaur R. K. et al. (2004), Methods Mol. Biol. 252:9-17) and immobilised on paramagnetic streptavidin (SA) beads.
By contrast, the protein band assigned to HPPD was not visible when negative controls (beads only and N47α immobilised on beads) were used.

endogenous HPPD = biological target: T3, endogenous HPPD; experiment: pull down of endogenous HPPD from protein extract with immobilised aptamer (SDS-PAGE); type: binding; settings: protein extract only as the source of HPPD, no recombinant protein added
Method: For a realistic proof of principle scenario representing attempts to identify an unknown interaction partner, biotinylated aptamer S116D-C8 was immobilised and used in attempts to pull down endogenous HPPD in protein extract, i.e. no recombinant protein was added. Again, appropriate controls such as N47α as a negative control and S116D-C8 together with recombinant HPPD were included.

| Molecule | Kd [1] [nM] | binding to / retention by control proteins (control proteins) | pull down of HPPD (protein band on SDS-PAGE) (recombinant HPPD) | pull down of recombinant HPPD (protein band on SDS-PAGE) (recombinant HPPD; different amounts of HPPD, in the presence of increasing amounts of PE) | pull down of endogenous HPPD (protein band on SDS-PAGE) (endogenous HPPD) |
| --- | --- | --- | --- | --- | --- |
| B1 | 128 ± 11 | not by any of the control proteins |  |  |  |
| B2 | 740 ± 39 |  |  |  |  |
| B3 | 832 ± 39 |  | could be used to pull down HPPD |  |  |
| B4 | 120 ± 9 |  | could be used to pull down HPPD | could be used to purify conveniently detectable amounts of HPPD | a protein band was visually detectable |
